Target: T1, hADM (Homo sapiens, UniProt P35318)
T1 construct: comprises the amino acids 95 to 146 of pre-proADM; host or cells: added to human citrate plasma
T1 sequence (P35318 95-146): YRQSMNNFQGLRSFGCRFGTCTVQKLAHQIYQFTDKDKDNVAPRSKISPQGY
Assay: Stability of human Adrenomedullin in human citrate plasma (hADM immunoassay)
Assay type: in vitro ADME
Conditions: 24° C., hADM 10 nM, NT-H 100 μg/ml
Description: The stabilizing effect of human ADM by human ADM antibodies was tested using a hADM immunoassay.
The technology used was a sandwich coated tube luminescence immunoassay, based on Acridinium ester labelling.
The final concentration was approx. 800.000 relative light units (RLU) of labelled compound (approx. 20 ng labeled antibody) per 200 μL.
After blocking with 5% bovine serum albumine, the tubes were washed with PBS, pH 7.4 and vacuum dried.
The assay was calibrated, using dilutions of hADM
(BACHEM AG, Switzerland) in 250 mmol/L NaCl, 2 g/L Triton X-100, 50 g/L Bovine Serum Albumin, 20 tabs/L Protease Inhibitor Cocktail (Roche Diagnostics AG, Switzerland))
Unbound tracer was removed by washing 5 times (each 1 ml) with washing solution (20 mM PBS, pH 7.4, 0.1% Triton X-100).
Human ADM was diluted in human Citrate plasma (final concentration 10 nM) and incubated at 24° C. At selected time points, the degradation of hADM was stopped by freezing at −20° C. […] The remaining hADM was quantified by using the hADM immunoassay described above.

B1: NT-H: murine monoclonal antibody raised against human ADM region 1-21 (SEQ ID: 15) (antibody, V domains shown)
VH: QVQLQQSGAELMKPGASVKISCKATGYTFSRYWIEWVKQRPGHGLEWIGEILPGSGSTNYNEKFKGKATITADTSSNTAYMQLSSLTSEDSAVYYCTEGYEYDGFDYWGQGTTLTVSS
VL: DVLLSQTPLSLPVSLGDQATISCRSSQSIVYSNGNTYLEWYLQKPGQSPKLLIYRVSNRFSGVPDRFSGSGSGTDFTLKISRVEAEDLGVYYCFQGSHIPYTFGGGTKLEIK
half life of hADM in the presence of NT-H: 18.3 h
